Source: article PMC4677347

Tests used:
[1] = biological target: human proteasome α7 subunit (human) (UniProt P25788); test: AUC; sedimentation velocity, α7 alone, 150 mM potassium phosphate pH 7.4, 25,000 rpm, c(s) analysis in SEDFIT
[2] = biological target: human proteasome α7 subunit (human) (UniProt P25788); test: native MS; α7 alone, 28 μM monomer, 10 mM ammonium acetate pH 6.8, nanoflow ESI under non-denaturing conditions
[3] = biological target: human proteasome α7 subunit (human) (UniProt P25788); test: AUC; sedimentation velocity, mixture of α7 and α6 at 1:4 molar ratio (α7 tetradecamer to α6 monomer), 150 mM potassium phosphate pH 7.4, 25,000 rpm
[4] = biological target: human proteasome α7 subunit (human) (UniProt P25788); test: native MS; α7 (2 μM tetradecamer) mixed with α6 (0.5, 1, 2, 4 and 8 μM monomer) at pH 7.5, incubated at 20 °C for 1 h, nanoflow ESI under non-denaturing conditions
[5] = biological target: human proteasome α6 subunit, short isoform (human) (UniProt P25786); test: AUC; sedimentation velocity, α6 alone, 150 mM potassium phosphate pH 7.4, 55,000 rpm, c(s) analysis in SEDFIT
[6] = biological target: human proteasome α6 subunit, short isoform (human) (UniProt P25786); test: native MS; α6 alone at 5, 10 and 20 μM monomer, 150 mM ammonium acetate pH 7.5, nanoflow ESI under non-denaturing conditions

stoichiometry N [1] | stoichiometry N [2] | stoichiometry N [3] | stoichiometry N [4] | stoichiometry N [5] | stoichiometry N [6] | Substance
14 | 14 | 7 | 7 |  |  | human proteasome α7 subunit (from UniProt P25788 1-255) (natural protein)
 |  | 7 α7 per α6 | 7 α7 per α6 | 2 | 2 | human proteasome α6 subunit, short isoform (from UniProt P25786 1-263) (natural protein)
